The values below come from patent US10786536B2, “Cardiac neural crest cells and methods of use thereof” (VESTION, INC., priority 2013, dated 2020).

Entries after “also recorded” stand apart in the source; their conditions may differ.

Type in all cases: cell-based, mouse
One test relates to EGFP^(+) cells (NCC^kit). The test can be described thus: neonatal cKit^CreERT2/IRG myocardial explant culture with or without MSC feeders, live-cell quantification of EGFP^(+) cells. The protocol: To study the mechanisms controlling migration and proliferation in postnatal cardiac NCC^kit clones, 2-day old cKit^CreERT2/IRG neonates administered a single subcutaneous injection of 50 μl of tamoxifen. The next day, 3-day old postnatal hearts (PN3) were harvested, washed in ice-cold HBSS and cleaned from unwanted tissues under a stereomicroscope. They were then transferred in a tissue-cultured hood and, after additional washing steps with DMEM under sterile conditions, were minced into ˜1 mm^3 fragments and digested in a solution of DMEM/F12, 20% FBS, 1% penicillin/streptomycin and 200 units/ml Collagenase-Type II solution at 37° C. Following that, tissue explants were collected and washed twice with DMEM. Single tissue fragments were then picked under a stereomicroscope using a pipette, and cultured individually in single wells of gelatin-coated 24-well plates, with or without 1×10^5 MSCs feeders. Samples were fed every other day. The basic myocardial explant feeding medium consisted of DMEM/F12, 15% FBS, 1% penicillin/streptomycin, 1% β-mercaptoethanol, 1000 units/ml recombinant mouse LIF, 1 ng/ml recombinant mouse bFGF, and 0.1 mM nonessential amino acids. The impact of SCF was tested by supplementing the medium with 100 ng/ml recombinant murine SCF. For cKit neutralization, 100 ng/ml of rat anti-murine cKit antibody were supplemented to the medium. For assessing the role of Sdf1/Cxcr4, AMD3100 was supplemented to the medium, at a final concentration of 1 μM. Samples were then monitored daily, and clonal growth of EGFP^(+) cells was quantified every other day for 5-8 consecutive days, under a fluorescent microscope.
Myocardial explants from these animals were collected the following day, and were cultured in the presence or absence of MSC feeders. Swine MSCs were isolated and expanded from a single, healthy Yorkshire donor as previously described. Briefly, bone marrow was obtained from the iliac crest, and aspirates were passed through a density gradient to eliminate undesired cell types and were plated with 25 ml MEM Alpha media containing 20% fetal Bovine Serum in 162 cm^2 culture flasks. At 5-7 days after plating, non-adherent cells were washed away during medium changes and the remaining, plastic adherent, purified MSC population was expanded in culture. All used cells were harvested when they reached 80-90% confluence at passage 3-4, and inactivated for 3 h at 37° C. with 10 μg/ml of mitomycin C. Inactivated porcine MSC feeders were collected by trypsinization and cryopreserved in liquid nitrogen until use. For all experiments, MSCs feeders were seeded at a concentration of 2×10^5 MSCs/ml a day before use. The responses of EGFP^(+) cells under different culture conditions were monitored daily and quantified via live-cell fluorescence imaging every other day.
The effect of MSCs on NCC^kit migration was explored because recent studies reveal a chemotactic role of Sdf1/Cxcr4 axis on NCCs. Myocardial explant cultures were generated, as described above, and screened the emergence of EGFP^(+) cells in response to AMD3100, an inhibitor of the Sdf1/Cxcr4 axis. […] Thus, Sdf1/Cxcr4 axis regulates migration and differentiation of NCC^kit.

Test [1] has as its system iPSC^kit-derived embryoid bodies. The test can be described thus: in-vitro lineage tracing during cardiogenic differentiation of iPSC^kit-derived embryoid bodies pulsed with 4-OH tamoxifen. The text has this:
First, to specifically address the relationship between CNC^kit and the cKit^+/Nkx2.5^+ lineage purified from mouse ES and iPSCs-derived cardiac mesoderm, iPSCs from cKit^CreERT2/IRG adult tail-tip fibroblasts (iPSC^kit) were established. iPSC^kit stably express DsRed with no leakage of EGFP (<30 passages). As with the cKit^CreERT2/IRG mice DsRed is irreversibly replaced by EGFP in iPSC^kit-derivatives upon Cre-mediated recombination, which occurs in response to treatment with 4-OH tamoxifen. […] Thus, iPSC^kit are suitable for in-vitro lineage tracing of cKit-expressing cells. Cardiomyocyte differentiation was induced by treatment of iPSC^kit-derived embryoid bodies (EB) with ascorbic acid as previously described (FIG. 17). Successful differentiation was reflected in the development of spontaneously contracting cardiomyocytes. To genetically trace whether any of the generated cardiomyocytes were progeny of cKit^+ progenitors, EBs were pulsed with 4-OH tamoxifen at selected time-points during differentiation and monitored the emergence of spontaneously beating EGFP^+ derivatives (FIG. 17). Indeed, EGFP^+ derivatives were detected in ˜45% of the spontaneously beating EBs, confirming previous findings that mouse pluripotent stem cells can be consistently directed to generate cardiomyocytes via a cKit^+ cardiomyocyte progenitor lineage (data not shown). […]

In a further test the test system is iPSC^kit. The test can be described thus: quantitative gene-expression analysis during cardiogenic differentiation of iPSC^kit. The following applies: noggin-treated iPSC^kit.

For the molecule `c1cc(CN2CCCNCCNCCCNCC2)ccc1CN1CCCNCCNCCCNCC1` [AMD3100], in the test with EGFP^(+) cells (NCC^kit) (AMD3100 1 μM, compared to non-AMD3100 treated groups), the “differentiation of EGFP^(+) cells into spontaneously beating/contracting cells” value is “massive differentiation into spontaneously contracting cardiomyocytes; also recorded: dramatic increase in the numbers of spontaneously beating EGFP^(+) cells”. In the test on EGFP^(+) cells (NCC^kit) (explants on MSC feeders), the “migration of EGFP^(+) cells from the cultured explants” value is listed as “blocked the migration of EGFP^(+) cells; also recorded: blocking cell migration”. Besides, in the test with EGFP^(+) cells (NCC^kit) (explants on MSC feeders, compared to MSCs+SCF group, AMD3100 1 μM, anti-cKit antibody 100 ng/ml), the “number / abundance of EGFP^(+) cells” value is listed as “significant reduction in the abundance of EGFP^(+) cells; also recorded: significantly decreased the number of EGFP^(+) cells”.

As for `O=C1O[C@H]([C@@H](O)CO)C(O)=C1O` [ascorbic acid], the “spontaneously beating EBs with EGFP^+ derivatives” value in test [1] (cardiomyocyte differentiation induced by ascorbic acid) is roughly 45%.

B1: noggin: BMP antagonist used for noggin-mediated antagonism of BMP signaling (protein, UniProt Q13253 28-232, looked up)
Noggin: QHYLHIRPAPSDNLPLVDLIEHPDPIFDPKEKDLNETLLRSLLGGHYDPGFMATSPPEDRPGGGGGAAGGAEDLAELDQLLRQRPSGAMPSEIKGLEFSEGLAQGKKQRLSKKLRRKLQMWLWSQTFCPVLYAWNDLGSRFWPRYVKVGSCFSKRSCSVPEGMVCKPSKSVHLTVLRWRCQRRGGQRCGWIPIQYPIISECKCSC
B1: the “generation of EGFP^+ cardiomyocytes” value in test [1] (BMP antagonism of iPSC^kit, EBs pulsed with 4-OH tamoxifen) is “resulted in the generation of EGFP^+ cardiomyocytes”. Moreover, the “expression of the epicardial progenitor cell markers WT1 and Tbx18” value in the test with iPSC^kit is reported as “transiently repressed”. The “expression of cKit, Wnt1, Snai2, Pax3 and MITF-H” value with iPSC^kit (selected time-points) is listed as “dramatic upregulation”.

B2: SCF: recombinant murine SCF supplemented to the medium at 100 ng/ml (protein)
chain: KEICGNPVTDNVKDITKLVANLPNDYMITLNYVAGMDVLPSHCWLRDMVIQLSLSLTTLLDKFSNISEGLSNYSIIDKLGKIVDDLVLCMEENAPKNIKESPKRPETRSFTPEEFFSIFNRSIDAFKDFMVASDTSDCVLSSTLGPEKDSRVSVTKPFMLPPVA
On to B2, for which the “increase in proliferative capacity of EGFP^(+) cells” value in the test with EGFP^(+) cells (NCC^kit) (100 ng/ml recombinant murine SCF, MSCs present) came out at 3.5 fold. In the test on EGFP^(+) cells (NCC^kit) (SCF in the absence of MSCs), the “proliferation of EGFP^(+) cells” value was “no significant differences were detected”. The “migration of EGFP^(+) cells from the cultured explants” value in the test on EGFP^(+) cells (NCC^kit) (explants on MSC feeders) was “neither SCF nor cKit affected EGFP^(+) cell migration”.
